# Measurements taken from patent US20140105931A1.
# Values joined by “and” are separate entries in the source; they are usually repeats but may differ in a detail not shown here. Equal entries are not always repeated.
# Legend:
# [1] = target: GST-human CD81-LEL (human) (UniProt P60033); experiment: ELISA, plate coated with GST-CD81-LEL, 30-fold concentrated HCVpp, detection with 2C1 mAb, GST background subtracted, relative to wt (Cp7) HCVpp
# [2] = target: GST-human CD81-LEL (human) (UniProt P60033); experiment: ELISA, plate coated with GST-hCD81-LEL, eE2 detected with anti-human-Fc
# [3] = target: human CD81 (co-receptor on Huh-7.5 cells) (human) (UniProt P60033); experiment: cell-based or functional assay
Substance,blocking of HCVcc (Cp7) infectivity of Huh-7.5 cells [3],further results
HCVpp carrying E2 C6A (from UniProt P26660 384-750; P26660 192-383),–,percentage of CD81 binding relative to the wild type [1]: 14.2%
"eE2-C6A (Fc-tagged, cell supernatant) (from UniProt P26660 384-664) (Fc fusion)",–,binding capacity relative to wild type eE2 [2]: < 20%
purified eE2 (Fc tag removed) (from UniProt P26660 384-664),60% and 70%,–
purified eE2-C6A (Fc tag removed) (from UniProt P26660 384-664),25%,–
purified eE2-C17S (from UniProt P26660 384-664),60% and 70%,–
